The target of one test is biotinylated human PCSK9 (UniProt Q8NBP7 31-692, biotinylated (sites not given)). As to the kind of experiment: competition binding ELISA (PCSK9-LDLR). Background: In an ELISA, binding on a coated surface is turned into a signal by an enzyme label.
Test [1] has as its target Human PCSK9 (Genbank EF692496) containing a histidine (His)8 C-terminal tag (UniProt Q8NBP7 31-692). Nature of the test: BIAcore SPR. On the technique in general: SPR reads the build-up and loss of mass on a sensor chip optically.
A further test addresses murine PCSK9. Nature of the test: BIAcore SPR.
For another test, the target named is Rat PCSK9. Nature of the test: BIAcore SPR.
The target in another test is rhesus PCSK9. Nature of the test: BIAcore SPR.
Another test concerns the target Cyno PCSK9. As to the kind of experiment: BIAcore SPR.

B1: anti-PCSK9 antibody 508.20.84 (antibody, V domains shown)
VH: EVQLVESGGGLVQPGGSLRLSCAASGFTFTGYAIHWVRQAPGKGLEWVARISPANGNTNYADSVKGRFTISADTSKNTAYLQMNSLRAEDTAVYYCARWIGSRELYIMDYWGQGTLVTVSS
VL: DIQMTQSPSSLSASVGDRVTITCRASQDVSTAVAWYQQKPGKAPKLLIYSASFLYSGVPSRFSGSGSGTDFTLTISSLQPEDFATYYCQQSYPAPSTFGQGTKVEIK
On to B1, for which the IC50 in the test with biotinylated human PCSK9 worked out at 1.39 nM. The molecule also had a Kd in test [1] of 0.481 nM.

B2: anti-PCSK9 antibody 508.20.28b (antibody, V domains shown)
VH: EVQLVESGGGLVQPGGSLRLSCAASGFTFTRHTINWVRQAPGKGLEWVARISPANGNTNYADSVKGRFTISADTSKNTAYLQMNSLRAEDTAVYYCARWIGSRELYIMDYWGQGTLVTVSS
VL: DIQMTQSPSSLSASVGDRVTITCRASQDVSTAVAWYQQKPGKAPKLLIYSASFLYSGVPSRFSGSGSGTDFTLTISSLQPEDFATYYCQQSYRIQPTFGQGTKVEIK
For the molecule B2, in the test with biotinylated human PCSK9, the IC50 is 1.05 nM. The molecule further gave a Kd in test [1] of 0.349 nM.

B3: anti-PCSK9 antibody 508.20.06 (antibody, V domains shown)
VH: EVQLVESGGGLVQPGGSLRLSCAASGFTFTGYAIHWVRQAPGKGLEWVARISPANGNTNYADSVKGRFTISADTSKNTAYLQMNSLRAEDTAVYYCARWIGSRELYIMDYWGQGTLVTVSS
VL: DIQMTQSPSSLSASVGDRVTITCRASQDVSTAVAWYQQKPGKAPKLLIYSASFLYSGVPSRFSGSGSGTDFTLTISSLQPEDFATYYCQQSYPSPATFGQGTKVEIK
Molecule B3 had an IC50 in the test with biotinylated human PCSK9 of 1 nM. This molecule came in with a Kd in test [1] of 0.628 nM.

B4: anti-PCSK9 antibody 508.20.04b (antibody, V domains shown)
VH: EVQLVESGGGLVQPGGSLRLSCAASGFTFTGYAIHWVRQAPGKGLEWVARISPANGNTNYADSVKGRFTISADTSKNTAYLQMNSLRAEDTAVYYCARWIGSRELYIMDYWGQGTLVTVSS
VL: DIQMTQSPSSLSASVGDRVTITCRASQDVSTAVAWYQQKPGKAPKLLIYSASFLYSGVPSRFSGSGSGTDFTLTISSLQPEDFATYYCQQSYPAPATFGQGTKVEIK
The molecule B4 came in with an IC50 with biotinylated human PCSK9 of 0.92 nM. Moreover, binding in test [1] was characterised by a dissociation constant (Kd) of 0.757 nM.

B5: YW508.20.33b reformatted into human IgG1 having a heavy chain with SEQ ID NO: 35 and a light chain with SEQ ID NO: 36 (antibody, V domains shown)
VH: EVQLVESGGGLVQPGGSLRLSCAASGFTFSSTAIHWVRQAPGKGLEWVARISPANGNTNYADSVKGRFTISADTSKNTAYLQMNSLRAEDTAVYYCARWIGSRELYIMDYWGQGTLVTVSS
VL: DIQMTQSPSSLSASVGDRVTITCRASQDVSTAVAWYQQKPGKAPKLLIYSASFLYSGVPSRFSGSGSGTDFTLTISSLQPEDFATYYCQQAYPALHTFGQGTKVEIKR
Take B5: the 50% inhibitory concentration (IC50) with biotinylated human PCSK9 amounted to 1.31 nM. For the same molecule, the affinity in test [1], expressed as Kd, was 0.408 nM.

B6: YW508.20.06 (antibody, V domains shown)
VH: EVQLVESGGGLVQPGGSLRLSCAASGFTFTGYAIHWVRQAPGKGLEWVARISPANGNTNYADSVKGRFTISADTSKNTAYLQMNSLRAEDTAVYYCARWIGSRELYIMDYWGQGTLVTVSS
VL: DIQMTQSPSSLSASVGDRVTITCRASQDVSTAVAWYQQKPGKAPKLLIYSASFLYSGVPSRFSGSGSGTDFTLTISSLQPEDFATYYCQQSYPSPATFGQGTKVEIK
B6: in the test with murine PCSK9, binding was characterised by a dissociation constant (Kd) of 0.201 nM.

B7: YW508.20.28b (antibody, V domains shown)
VH: EVQLVESGGGLVQPGGSLRLSCAASGFTFTRHTINWVRQAPGKGLEWVARISPANGNTNYADSVKGRFTISADTSKNTAYLQMNSLRAEDTAVYYCARWIGSRELYIMDYWGQGTLVTVSS
VL: DIQMTQSPSSLSASVGDRVTITCRASQDVSTAVAWYQQKPGKAPKLLIYSASFLYSGVPSRFSGSGSGTDFTLTISSLQPEDFATYYCQQSYRIQPTFGQGTKVEIK
Molecule B7 displayed a Kd in the test with murine PCSK9 of 0.323 nM.

B8: YW508.20b (antibody, V domains shown)
VH: EVQLVESGGGLVQPGGSLRLSCAASGFTFTGYAIHWVRQAPGKGLEWVARISPANGNTNYADSVKGRFTISADTSKNTAYLQMNSLRAEDTAVYYCARWIGSRELYIMDYWGQGTLVTVSS
VL: DIQMTQSPSSLSASVGDRVTITCRASQDVSTAVAWYQQKPGKAPKLLIYSASFLYSGVPSRFSGSGSGTDFTLTISSLQPEDFATYYCQQSYTTPPTFGQGTKVEIK
B8 gave an IC50 with biotinylated human PCSK9 of 15.2 nM.

B9: YW508.20.84 (antibody, V domains shown)
VH: EVQLVESGGGLVQPGGSLRLSCAASGFTFTGYAIHWVRQAPGKGLEWVARISPANGNTNYADSVKGRFTISADTSKNTAYLQMNSLRAEDTAVYYCARWIGSRELYIMDYWGQGTLVTVSS
VL: DIQMTQSPSSLSASVGDRVTITCRASQDVSTAVAWYQQKPGKAPKLLIYSASFLYSGVPSRFSGSGSGTDFTLTISSLQPEDFATYYCQQSYPAPSTFGQGTKVEIK
With B9, the Kd in the test with murine PCSK9 amounted to 0.135 nM.

B10: YW508.20.33b (antibody, V domains shown)
VH: EVQLVESGGGLVQPGGSLRLSCAASGFTFSSTAIHWVRQAPGKGLEWVARISPANGNTNYADSVKGRFTISADTSKNTAYLQMNSLRAEDTAVYYCARWIGSRELYIMDYWGQGTLVTVSS
VL: DIQMTQSPSSLSASVGDRVTITCRASQDVSTAVAWYQQKPGKAPKLLIYSASFLYSGVPSRFSGSGSGTDFTLTISSLQPEDFATYYCQQAYPALHTFGQGTKVEIKR
Take B10: the dissociation constant (Kd) in the test with murine PCSK9 turned out to be 0.0123 nM; with Rat PCSK9 it was 0.0182 nM; with rhesus PCSK9 it was 4.09 nM; with Cyno PCSK9, 0.0624 nM.

B11: YW508.20.04b (antibody, V domains shown)
VH: EVQLVESGGGLVQPGGSLRLSCAASGFTFTGYAIHWVRQAPGKGLEWVARISPANGNTNYADSVKGRFTISADTSKNTAYLQMNSLRAEDTAVYYCARWIGSRELYIMDYWGQGTLVTVSS
VL: DIQMTQSPSSLSASVGDRVTITCRASQDVSTAVAWYQQKPGKAPKLLIYSASFLYSGVPSRFSGSGSGTDFTLTISSLQPEDFATYYCQQSYPAPATFGQGTKVEIK
Take B11: the dissociation constant Kd with murine PCSK9 stood at 0.117 nM.

The term IC50 denotes the concentration that inhibits the measured activity by half. The low end stands for greater potency in that assay, the high end for weaker potency in that assay. Broadly, the Kd is the concentration at which binding is half-saturated.
